Data on two molecules can be found in publication doi:10.1101/2020.09.15.299115.

The target of experiment [1] is mCherry-FKBP-Ubc9 (UniProt P63279).
The target is the same in experiment [2]. Nature of the experiment: partitioning into condensates.

In the case of “FKBP-EGFP-RanGAP* (RanGAP C-terminal domain 398-587, F562A) (from UniProt P46060 398-587) (domain or fragment)”, the KM of SUMOylation of RanGAP* (no scaffolds) in the experiment with mCherry-FKBP-Ubc9 [1] came out at 70 µM.

B1: E1-EGFP (SAE1/2 heterodimer) (complex)
chain 1: MVEKEEAGGGISEEEAAQYDRQIRLWGLEAQKRLRASRVLLVGLKGLGAEIAKNLILAGVKGLTMLDHEQVTPEDPGAQFLIRTGSVGRNRAEASLERAQNLNPMVDVKVDTEDIEKKPESFFTQFDAVCLTCCSRDVIVKVDQICHKNSIKFFTGDVFGYHGYTFANLGEHEFVEEKTKVAKVSQGVEDGPDTKRAKLDSSETTMVKKKVVFCPVKEALEVDWSSEKAKAALKRTTSDYFLLQVLLKFRTDKGRDPSSDTYEEDSELLLQIRNDVLDSLGISPDLLPEDFVRYCFSEMAPVCAVVGGILAQEIVKALSQRDPPHNNFFFFDGMKGNGIVECLGPK
chain 2: MALSRGLPRELAEAVAGGRVLVVGAGGIGCELLKNLVLTGFSHIDLIDLDTIDVSNLNRQFLFQKKHVGRSKAQVAKESVLQFYPKANIVAYHDSIMNPDYNVEFFRQFILVMNALDNRAARNHVNRMCLAADVPLIESGTAGYLGQVTTIKKGVTECYECHPKPTQRTFPGCTIRNTPSEPIHCIVWAKYLFNQLFGEEDADQEVSPDRADPEAAWEPTEAEARARASNEDGDIKRISTKEWAKSTGYDPVKLFTKLFKDDIRYLLTMDKLWRKRKPPVPLDWAEVQSQGEETNASDQQNEPQLGLKDQQVLDVKSYARLFSKSIETLRVHLAEKGDGAELIWDKDDPSAMDFVTSAANLRMHIFSMNMKSRFDIKSMAGNIIPAIATTNAVIAGLIVLEGLKILSGKIDQCRTIFLNKQPNPRKKLLVPCALDPPNPNCYVCASKPEVTVRLNVHKVTVLTLQDKIVKEKFAMVAPDVQIEDGKGTILISSEEGETEANNHKKLSEFGIRNGSRLQADDFLQDYTLLINILHSEDLGKDVEFEVVGDAPEKVGPKQAEDAAKSITNGSDDGAQPSTSTAQEQDDVLIVDSDEEDSSNNADVSEEERSRKRKLDEKENLSAKRSRIEQKEELDDVIALD
Take B1: the fold concentration in droplets in the experiment with mCherry-FKBP-Ubc9 [2] is 1.9 fold.
